# Measured values: US20240425588A1 (published 2024)
# T1: recombinant human TIGIT-His (SinoBiological) (UniProt Q495A1 22-141)
# T1 chain: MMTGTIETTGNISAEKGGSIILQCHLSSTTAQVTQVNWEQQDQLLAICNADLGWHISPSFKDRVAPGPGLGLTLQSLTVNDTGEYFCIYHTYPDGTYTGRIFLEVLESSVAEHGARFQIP
# Target: T1, recombinant human TIGIT-His …
# Assay: Biacore; 25°C
row,Binder,Kd [nM]
1,"45.102D4.C12.C6 (antibody, V domains shown) VH: EVQLQQSGPELVKPGASVKMSCKASGYTFTTYVIHWVKQKPGQGLEWIGYINPYNDGTKYNEKFKVKATLTSDKSSSTAYMELSSLTSEDSAVYYCARSFYVNYGFAYWGQGTLVTVSA VL: DIVMTQAHKFMSTSVGDRVSITSKASQDVRTAVAWYQQKPGQSPKLLIYSASYRYTGVPDRFTGSGSGADFTFTISSVQAEDLAVYYCQQHYITPWTFGGGTKLEIK",1.23
2,"45.31G8.E9 (antibody, V domains shown) VH: QIQLQQSGAELVRPGTSVKMSCKAVGYTFTNYWINWVKQRPGHGFEWIGDIYPGGYYINYNEKFKGKATLTADTSSSTAYMQLSSLTSEDSAIYYCARGYGSYAMDYWGQGTSVTVSS VL: DIVMTQSQKFMSTSVGDRVSITCKASQNVRTDVVWYQQKPGQSPKALIFLASNRHTGVPDRFTGSGSGTDFTLTISNVQSEDLADYFCLQHWNYPYTFGGGTKLEIK",0.776
3,"45.87B8.H2.H5 (antibody, V domains shown) VH: DVQLQESGPGLVKPSQSLSLTCTVTGYSITSAYDWHWIRLFPGHILEWMGYISYSGNTIYNPSLKSRISITHDTSKNHFFLKLNSVTTEDTATYYCARGSFWYFDVWGAGTTVTVSS VL: DIQMTQSPASLSASVGETVTITCRVSEHIYNYLAWYQQKQGKSPQLLVYNAKTLAEGVPSRFSGSGSGTQFSLKINSLQPEDFGTYYCQHNYGNPLTFGAGTKVELK",4.75
4,"45.32B10.A4 (antibody, V domains shown) VH: EVQLVESGGVLVKPGGSLKLSCAASGFTFSNYVMSWVRQTPEKRLEWVATITSGGTYTYYPDSVKGRFTISRDNAKNILYLQMSSLRSEDTALYYCTRWLLSLYAMDYWGQGTSVTVSS VL: DIQMTQTTSSLSASLGDRVTITCRASQDISNFLNWYQQKPDGTVKLLIYYTSRLHSGVPSRFSGSGSGTDYSLTISNLEQEDIATYFCQQGKTYPYTFGGGTKVEIK",0.53
5,"45.3D7.F7 (antibody, V domains shown) VH: QVQLQQSGPELVKPGASVKISCKASGYGFSGYWMNWVKQGPGKGLEWIGRIFPGDGDTDYNGKLKDKATLTAYKSSSTAYLQLSSLTSEDSAVYFCARWLGGFTSWGQGTLVTVSA VL: QIVLSQSPAILSASPGEKVTMTCRASASVSYMHWYQQKPGSSPKPWIYATSNLASGVPARFSGSGSGTSYSLTISRVEAEDAATYYCQQWSSDPPTFGAGTKLELK",4.47
6,"45.56F7.A1 (antibody, V domains shown) VH: EVQLVESGGALVKPGGSLKLSCAASGFTFSNYAMSWVRQTPEKRLEWVATISSGGSYTYYPDSVKGRFTISRDNAKNTLYLQMSSLRSEDTALYYCARWLLSLYAMDYWGQGTSVTVSS VL: DFQMTQTTSSLSASLGDRVTISCRSSQDISNYLNWYQQKPDGTVKLLIYRTSRLHSGVPSRFSGSGSGTDYSLTISNLEREDIATYFCQQGKTPPYTFGGGTKLEIK",12
7,"45.49H11.H11 (antibody, V domains shown) VH: EVQLQQSGPELVKPGASVKMSCKTSKYTFTNYVLHWVKQKPGQGLEWIGYINPYNDGTKYNEKFKGKATLTSDKSSSTAYMELSSLTSEDSAVYYCARSYQSNYGFGYWGQGTLVTVSA VL: DIVMTQSHKFMSTSVGDRVSITCKASQHVSTAVVWYRQIPGQSPKILINSASYRYTGVPDRFTGSGSGTDFTFTISSVQAEDLAVYYCQQHYSIPWTFGGGTKLEIK",1.04
8,"45.86C5.C3 (antibody, V domains shown) VH: DVQLQESGPGLVKPSQSLSLTCTVTGYSITSGYDWHWIRHFPGNILEWMGYISDSGNTIYSPSLKSRISITHDTSKNHFFLKLNSVTSEDTATYYCARGSFWYFDVWGAGTTVTVSS VL: DIQMTQSPASLSASVGETVTITCRVSENIYSYLAWYQQKQGKSPQLLVYNTKTLAEGVPSRFSGSGSGTQFSLKINSLQPEDFGSYYCQHHYGNPLTFGAGTKLELK",0.784
9,"45.62B12.G5 (antibody, V domains shown) VH: DVQLQESGPGLVKPSQSLSLTCTVTGYSITSAYDWHWIRHFPGNILEWMGYIRNSGSTNYNPLLKSRISITHDTSQNHFSLKLNSVTTEDTATYYCARGLFWYFDVWGAGTTVTVSS VL: DIQMTQSPASLSASVGETVTITCRASENIYNYLTWYQQKQGKSPQLLVYNAKTLAEGVPSRFSGSGSGTQFSLKINSLQPEDFGSYYCQHHYGNPLTFGAGTKLELK",0.862
10,"45.75D4.D3.D9 (antibody, V domains shown) VH: EVQLQQSGPELVKPGASMKMSCKASGYKFTSYVMHWVKQKPGQGLEWIGYIDPYNDGSKYNEKFKGKATLTSDKSSSIAYMELSSLTSEDSAVFYCARGGSRGWYFDVWGAGTTVTVSS VL: DIQMTQSPASLSASVGETVTFTCRTNENIYSYLTWYQQKQGKSPQVLVYNAKTLAEGVPSRFSGSGSGTQFSLKINSLQPEDFGSYFCQHHFGNPLTFGAGTKLELK",1.09
11,"45.50C2.A6 (antibody, V domains shown) VH: QVQLKESGPGLVAPSQSLSITCTVSGFSLTNYNINWIRQPPGKGLEWLGVIWTGGGTNYNSAFMSRLSISKDNSKSQVFLKMNRLQTDDTAIYYCVREAYFSNYGFYFDYWGQGTTLTVSS VL: EIVLTQSPTTMAASPGEKITITCSASSSISSNYLHWYQQKPGFSPKLLIYRTSNLASGVPARFSGSGSGTSYSLTIGTMEAEDVATYYCQQGSSIPRTFGGGTKLEIK",0.386
12,"45.32A8.G6 (antibody, V domains shown) VH: QVQLKESGPGLVAPSHSLSITCTVSGFSLTNYNINWIRQPPGKGLEWLGIIWTGGGTNYNSAFMSTLSINKDNSKSQVFLKMNRMQTDDTTIYYCVRETYFNNYGFYFDYWGQSTTLTVSS VL: EIVLTQSPTTMAASPGEKITITCSASSSISSNYLHWYQQKPGFSPKLLIYRTSNLASGVPARFSGSGSGTSYSLTIGTMEAEDVATYYCQQGSSIPRTFGGGTKLEIK",0.428

# Target: T1, recombinant human TIGIT-His …
# Assay: Biacore
row,Binder,Kd [nM]
1,"45.32B10.A4 (antibody, V domains shown) VH: EVQLVESGGVLVKPGGSLKLSCAASGFTFSNYVMSWVRQTPEKRLEWVATITSGGTYTYYPDSVKGRFTISRDNAKNILYLQMSSLRSEDTALYYCTRWLLSLYAMDYWGQGTSVTVSS VL: DIQMTQTTSSLSASLGDRVTITCRASQDISNFLNWYQQKPDGTVKLLIYYTSRLHSGVPSRFSGSGSGTDYSLTISNLEQEDIATYFCQQGKTYPYTFGGGTKVEIK",0.53
2,"hu32B10 HAM (45.32B10.A4) (antibody, V domains shown) VH: EVQLLESGGGLVQPGGSLRLSCAASGFTFSNYVMSWVRQAPGKGLEWVSTITSGGTYTYYPDSVKGRFTISRDNSKNTLYLQMNSLRAEDTAVYYCTRWLLSLYAMDYWGQGTTVTVSS VL: DIQMTQSPSSLSASVGDRVTITCRASQDISNFLNWYQQKPGKAVKLLLYYTSRLHSGVPSRFSGSGSGTDYTLTISSLQPEDFATYFCQQFKTYPYTFGGGTKVEIK",0.271
3,"hu32B10 (45.32B10.A4) (antibody, V domains shown) VH: EVQLLESGGGLVQPGGSLRLSCAASGFTFSNYVMSWVRQAPGKGLEWVSTITSGGTYTYYPDSVKGRFTISRDNSKNTLYLQMNSLRAEDTAVYYCTRWLLSLYAMDYWGQGTTVTVSS VL: DIQMTQSPSSLSASVGDRVTITCRASQDISNFLNWYQQKPGKAVKLLLYYTSRLHSGVPSRFSGSGSGTDYTLTISSLQPEDFATYFCQQGKTYPYTFGGGTKVEIK",1.61
4,"hu50C2 HAM (45.50C2.A6) (antibody, V domains shown) VH: QVQLQESGPGLVKPSETLSLTCTVSGFSLTNYNINWIRQPPGKGLEWIGVIWNGGGTNYNSAFMSRVTISKDTSKNQVSLKLSSVTAADTAVYYCVREAYFSNYGFYFDYWGQGTLVTVSS VL: DIQMTQSPSSLSASVGDRVTITCSASSSISSNYLHWYQQKPGKAPKLLIYRTSNLASGVPSRFSGSGSGTDFTLTISSLQPEDFATYYCQQGSSIPRTFGGGTKVEIK",4.17
5,"hu50C2 (45.50C2.A6) (antibody, V domains shown) VH: QVQLQESGPGLVKPSETLSLTCTVSGFSLTNYNINWIRQPPGKGLEWIGVIWTGGGTNYNSAFMSRVTISKDTSKNQVSLKLSSVTAADTAVYYCVREAYFSNYGFYFDYWGQGTLVTVSS VL: DIQMTQSPSSLSASVGDRVTITCSASSSISSNYLHWYQQKPGKAPKLLIYRTSNLASGVPSRFSGSGSGTDFTLTISSLQPEDFATYYCQQGSSIPRTFGGGTKVEIK",1.46
6,"45.50C2.A6 (antibody, V domains shown) VH: QVQLKESGPGLVAPSQSLSITCTVSGFSLTNYNINWIRQPPGKGLEWLGVIWTGGGTNYNSAFMSRLSISKDNSKSQVFLKMNRLQTDDTAIYYCVREAYFSNYGFYFDYWGQGTTLTVSS VL: EIVLTQSPTTMAASPGEKITITCSASSSISSNYLHWYQQKPGFSPKLLIYRTSNLASGVPARFSGSGSGTSYSLTIGTMEAEDVATYYCQQGSSIPRTFGGGTKLEIK",0.386

# Target: Cynomolgus TIGIT
# Assay: Biacore
row,Binder,Kd [nM]
1,"32B10 Affinity Matured (HAM) (antibody, V domains shown) VH: EVQLLESGGGLVQPGGSLRLSCAASGFTFSNYVMSWVRQAPGKGLEWVSTITSGGTYTYYPDSVKGRFTISRDNSKNTLYLQMNSLRAEDTAVYYCTRWLLSLYAMDYWGQGTTVTVSS VL: DIQMTQSPSSLSASVGDRVTITCRASQDISNFLNWYQQKPGKAVKLLLYYTSRLHSGVPSRFSGSGSGTDYTLTISSLQPEDFATYFCQQFKTYPYTFGGGTKVEIK",6.73
2,"32B10 Original (antibody, V domains shown) VH: EVQLVESGGVLVKPGGSLKLSCAASGFTFSNYVMSWVRQTPEKRLEWVATITSGGTYTYYPDSVKGRFTISRDNAKNILYLQMSSLRSEDTALYYCTRWLLSLYAMDYWGQGTSVTVSS VL: DIQMTQTTSSLSASLGDRVTITCRASQDISNFLNWYQQKPDGTVKLLIYYTSRLHSGVPSRFSGSGSGTDYSLTISNLEQEDIATYFCQQGKTYPYTFGGGTKVEIK",8.7
3,"50C2 Original (antibody, V domains shown) VH: QVQLKESGPGLVAPSQSLSITCTVSGFSLTNYNINWIRQPPGKGLEWLGVIWTGGGTNYNSAFMSRLSISKDNSKSQVFLKMNRLQTDDTAIYYCVREAYFSNYGFYFDYWGQGTTLTVSS VL: EIVLTQSPTTMAASPGEKITITCSASSSISSNYLHWYQQKPGFSPKLLIYRTSNLASGVPARFSGSGSGTSYSLTIGTMEAEDVATYYCQQGSSIPRTFGGGTKLEIK",45.9
4,"32B10 Humanized (Hu) (antibody, V domains shown) VH: EVQLLESGGGLVQPGGSLRLSCAASGFTFSNYVMSWVRQAPGKGLEWVSTITSGGTYTYYPDSVKGRFTISRDNSKNTLYLQMNSLRAEDTAVYYCTRWLLSLYAMDYWGQGTTVTVSS VL: DIQMTQSPSSLSASVGDRVTITCRASQDISNFLNWYQQKPGKAVKLLLYYTSRLHSGVPSRFSGSGSGTDYTLTISSLQPEDFATYFCQQGKTYPYTFGGGTKVEIK",26
5,"50C2 Affinity Matured (HAM) (antibody, V domains shown) VH: QVQLQESGPGLVKPSETLSLTCTVSGFSLTNYNINWIRQPPGKGLEWIGVIWNGGGTNYNSAFMSRVTISKDTSKNQVSLKLSSVTAADTAVYYCVREAYFSNYGFYFDYWGQGTLVTVSS VL: DIQMTQSPSSLSASVGDRVTITCSASSSISSNYLHWYQQKPGKAPKLLIYRTSNLASGVPSRFSGSGSGTDFTLTISSLQPEDFATYYCQQGSSIPRTFGGGTKVEIK",19.2
